Experiment [1] addresses PfPTRAMP (residues 25 to 309) with a C-terminal His-tag (P. falciparum). Nature of the experiment: BLI; PfRipr or PfPTRAMP at 20 μg/ml immobilised on Anti-Penta-His (His1K) biosensors, twofold dilution series of PTRAMP–CSS or PfCSS; 25 °C, PBS pH 7.4, 0.1% BSA, 0.02% Tween-20; 1:1 model. (Biolayer interferometry detects binding as a change in optical thickness at a sensor tip.)

Experiment [2] addresses PfRipr (residues 20 to 1086) (P. falciparum) (UniProt O97302). The description is as above.

By Kd is commonly meant the free concentration of one partner at which half of the binding sites on the other are occupied at equilibrium, for simple one-to-one binding. As for “PfCSS (residues 20 to 290) (domain or fragment)”, the Kd came out at 19 µM in experiment [1] and 1.1 µM in experiment [2].
As for “PTRAMP–CSS heterodimer (disulfide-linked PfPTRAMP 42–309 and PfCSS 20–290) (complex)”, the Kd in experiment [2] turned out to be 3.6 µM.

These data come from PMC9712106.
